The assay has as its target murine GM-CSF receptor (on FDC-P1 cells) (murine) (UniProt Q00941). Nature of the assay: cell-based or functional assay.
UniProt Q00941, sequence (Q00941 30-388, chain 1 of 2): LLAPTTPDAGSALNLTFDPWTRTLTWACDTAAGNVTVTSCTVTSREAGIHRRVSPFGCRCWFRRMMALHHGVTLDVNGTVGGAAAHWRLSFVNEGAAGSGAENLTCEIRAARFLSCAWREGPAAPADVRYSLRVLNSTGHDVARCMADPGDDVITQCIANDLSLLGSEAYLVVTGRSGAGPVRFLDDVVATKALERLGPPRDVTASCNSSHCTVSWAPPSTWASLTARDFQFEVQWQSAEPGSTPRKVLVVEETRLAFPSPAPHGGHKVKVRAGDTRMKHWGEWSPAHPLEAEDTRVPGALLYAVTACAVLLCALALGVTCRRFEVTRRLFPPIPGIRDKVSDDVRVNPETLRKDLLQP
UniProt Q00941, sequence (P26955 23-896, chain 2 of 2, further chain): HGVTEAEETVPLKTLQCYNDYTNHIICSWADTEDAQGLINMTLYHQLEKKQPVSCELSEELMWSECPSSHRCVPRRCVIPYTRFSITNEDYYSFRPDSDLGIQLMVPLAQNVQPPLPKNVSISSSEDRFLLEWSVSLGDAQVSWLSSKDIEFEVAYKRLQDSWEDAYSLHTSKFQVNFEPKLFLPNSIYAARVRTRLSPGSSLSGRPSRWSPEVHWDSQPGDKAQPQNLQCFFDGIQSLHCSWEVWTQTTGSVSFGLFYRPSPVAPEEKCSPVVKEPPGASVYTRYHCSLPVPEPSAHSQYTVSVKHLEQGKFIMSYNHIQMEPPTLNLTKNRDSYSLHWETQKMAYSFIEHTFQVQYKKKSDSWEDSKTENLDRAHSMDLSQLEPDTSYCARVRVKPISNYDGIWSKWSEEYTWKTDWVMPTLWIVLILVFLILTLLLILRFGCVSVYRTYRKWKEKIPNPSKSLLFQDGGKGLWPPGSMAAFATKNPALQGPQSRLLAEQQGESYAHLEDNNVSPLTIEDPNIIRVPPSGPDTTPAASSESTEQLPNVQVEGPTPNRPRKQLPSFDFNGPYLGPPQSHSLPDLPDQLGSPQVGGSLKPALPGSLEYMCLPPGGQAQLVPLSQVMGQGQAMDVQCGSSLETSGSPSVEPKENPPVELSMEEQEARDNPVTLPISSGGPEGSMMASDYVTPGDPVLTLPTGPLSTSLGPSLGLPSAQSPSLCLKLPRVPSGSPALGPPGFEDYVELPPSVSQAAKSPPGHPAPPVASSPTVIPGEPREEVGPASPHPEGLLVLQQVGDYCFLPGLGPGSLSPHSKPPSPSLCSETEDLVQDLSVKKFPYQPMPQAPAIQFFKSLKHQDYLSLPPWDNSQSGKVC

As for “GPI-GM-CSF (murine GM-CSF fused to the S. cerevisiae Gas1 GPI modification signal sequence, expressed in yeast clone SC-GM-GPI) (from UniProt P01587 18-141; P22146 474-528) (other; the values are: proliferation increase vs soluble GM-CSF)”, the proliferation of FDC-P1 cells (Biotrak BrdU cell proliferation ELISA), 10 ng GM-CSF equivalent per well was determined as 25%.

The record behind these values is patent US20040180389A1.
